Target: myristylated PKA-Cα K7C (mouse, UniProt P05132 1-351, K7C, N-terminal myristylation)
Assay: SPR

B1: phosphorylated SMO IFR→AAA (I573A, F577A, R580A; FLAG-tagged mouse SMO 64-674) in nanodiscs (receptor)
chain: LLSHCGRAAHCEPLRYNVCLGSALPYGATTTLLAGDSDSQEEAHGKLVLWSGLRNAPRCWAVIQPLLCAVYMPKCENDRVELPSRTLCQATRGPCAIVERERGWPDFLRCTPDHFPEGCPNEVQNIKFNSSGQCEAPLVRTDNPKSWYEDVEGCGIQCQNPLFTEAEHQDMHSYIAAFGAVTGLCTLFTLATFVADWRNSNRYPAVILFYVNACFFVGSIGWLAQFMDGARREIVCRADGTMRFGEPTSSETLSCVIIFVIVYYALMAGVVWFVVLTYAWHTSFKALGTTYQPLSGKTSYFHLLTWSLPFVLTVAILAVAQVDGDSVSGICFVGYKNYRYRAGFVLAPIGLVLIVGGYFLIRGVMTLFSIKSNHPGLLSEKAASKINETMLRLGIFGFLAFGFVLITFSCHFYDFFNQAEWERSFRDYVLCQANVTIGLPTKKPIPDCEIKNRPSLLVEKINLFAMFGTGIAMSTWVWTKATLLIWRRTWCRLTGHSDDEPKRIKKSKMAAKAASKARELLQNPGQELSFSMHTVSHDGPVAGLAFDLNEPSADVSSAWAQHVTKMVARRGAILPQDVSVTPVATPVPPEEQANMWLVEAEISPELEKRLG
modifications: GRK2/3-phosphorylated; mapped sites pS560, pS594, pT597, pS599, pS615, pS642, pT644, pT648
Kd: 222 nM
